Assay results from the supplement of paper PMC10567573.

B1: PDS5B (parent)
chain: ITYPPGVKEISDKISKEEMVRRLK
B2: GNAI1 (parent)
chain: WIHCFEGVTAIIFCVALSDYDLVL

Variants of: B1
Assay: protein stability index of a GFP-peptide fusion (GPS, HEK-293T) (PSI 1-6); higher = more stable
Conditions: c terminus: a fixed tail appended
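Also: lentivirally expressed fusions sorted by FACS into six bins by GFP to DsRed ratio, PSI derived from sequencing read proportions per bin multiplied by bin number.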

Protein stability index, by site and new letter:
G6: K 4.57
R22: F 3.85
Y3: R 4.96
M19: T 4.99, C 4.1, A 3.68
D12: V 3.3, C 3.03
E18: G 3.86, T 4.12, Y 2.86
K16: F 3
L23: D 5.12, P 4.85
T2: Y 3.37, I 2.83
K13: W 2.84
R21: Q 4.28, W 4.52
P4: N 3.43
K8: M 3.46
P5: V 3.16
V20: L 3.49, N 4.4
I14: M 4.34, E 4.61
K24: E 4.38
E9: Y 2.79
I1: C 4.63, H 5.04, G 3.81
E17: M 2.65

Variants of: B2
Assay: as above
Conditions: c terminus: a fixed tail appended

Protein stability index: each site, then its substitutions
L22: S 3.61, W 3.57, D 3.04, P 1.98, A 1.82, Y 2.52, V 4.39, K 3.61, H 1.34, C 1.87, N 1.85, Q 3.71, M 2.77, F 2.5
T9: D 3.05, H 3.23, Y 2.83, Q 2.66, A 2.01, W 3.23, F 3.82, R 2.51, S 2, C 2.57, I 4.15, K 2.17, G 2.84
Y20: K 2.02, T 4.04, G 2.45, Q 4.16, S 2.35, R 2.75, E 2.71, D 3.02, A 3, L 3.28, F 3.7, C 2.61, N 3.6, I 3.91, V 2.86, M 1.56
D19: Q 2.96, T 4.11, A 2.02, I 1.44, S 2.77, F 3.69, K 3.29, G 3.1, P 3.43, M 1.58, V 3.39, H 2.87, Y 3.06, E 3.67, C 3.67, L 2.58
I2: Y 3.56, R 2.34, S 2.82, T 2.12
L17: N 2.67, F 4.72, T 2.04, K 2.55, D 3.5, W 3.09, R 2.51, V 3.19, Q 3.55, A 3.93, E 3.42, H 2.71, P 3.56, Y 2.83
V15: I 3.06, Y 3.25, H 3.01, N 3.17, D 2.61, C 3.06, T 2.03, K 3.22, Q 3.42, F 3.93, M 1.77, P 3.22
F5: H 3.07, A 3.47, T 2.87, I 3.65, D 2.6, S 2.75, C 1.78, P 3.42, M 2.91, K 2.11, Q 2.79, N 2.79
V23: T 3.6, R 2.89, P 2.28, F 2.29, C 1.55, E 2.71, S 2.21, I 2.7, N 3.29, H 4, Y 3.15, K 3.57
F13: N 2.17, C 2.64, V 2.83, S 2.34, K 4.12, G 2.34, E 1.84, I 4.07, Q 3.46, P 2.43, T 2.07
C4: F 2.8, P 2.69, Q 3.17, G 3.37, H 2.22, M 2.25, K 3.1, S 3.29, T 2.39, W 4.22, Y 2.43, E 2.83, N 3.76, R 2.97
H3: E 3.35, N 3.58, Y 3.39, D 3.95, I 2.8, K 3.35, C 1.69, F 1.75, T 3.21, V 2.98
A16: H 1.78, S 3.92, M 2.41, L 3.16, T 3.18, Q 2.56, G 3.14, D 2.96, V 1.64, Y 4.61, N 2.25, K 4.07
A10: K 2.31, C 4.03, T 2.48, D 1.51, N 3.19, G 2.08, Q 2.09, I 1.8, S 1.82, L 4.17, F 2.31, Y 2.76, W 2.06
E6: R 3.24, Q 1.76, G 2.32, N 3.63, T 2.2, V 2.97, F 1.87, M 2.6, D 2.74, I 3.12, A 2.75, K 1.26, L 4.47, Y 2.48, C 1.95
V8: A 2.56, N 2.3, I 3.14, M 2.09, R 3.63, S 1.65, C 3.33, L 2.78, P 2.99, K 1.95, D 2.79, F 3.11, Q 3.32, Y 2.2, G 1.82
I12: L 3.2, R 5.41, H 1.71, P 4.32, E 4.44, S 2.84, N 2.9, Q 1, Y 3.14, W 2.95, F 3.41, T 1.79, K 1.93
D21: K 3.74, R 2.59, A 3.49, Y 2.41, T 4.09, N 3.81, F 4.12, M 2.88, L 2.81, G 2.37, E 4.04, I 3.09, W 2.27, C 3.01, S 2.76
C14: Q 2.43, D 4.12, L 1.8, H 2.66, T 4.02, A 1.32, F 3.23, Y 3.37, M 1.93, P 2.46, N 2.56, I 3.89, S 3.26, G 2.52, R 4.07
I11: T 1.61, A 1.48, V 3.49, K 3.52, P 2.79, N 3.83, H 3.5, F 3.26, C 3.28, Y 3.17, D 3.47, S 4.32, M 3.01, E 2.67, Q 1.86
G7: P 5.18, I 4.42, Q 2.28, C 4.35, Y 2.62, L 2.54, E 3.19, H 2.92, R 2.02, M 1.99, S 2.44, D 3.39, T 2.51
L24: G 3.06, Q 1.69, V 2.12, P 2.78, K 3.06, M 2.29, A 1.85, N 4.75, F 2.34, W 1.92, D 2.92, R 3.04, H 3.37, I 3.87, E 1.42, T 3.34
S18: N 2.34, A 1.86, T 2.95, L 4.7, Q 4.04, E 4.41, V 2.2, I 4.92, W 2.62, D 2.67, F 1.9, P 2.3
